Source: patent US20220289791A1 (UNIVERSIT CATHOLIQUE DE LOUVAIN, published 2022)
*1 amine or outer side, *2 acyl side, *3 side chain or, on linkers, in order; H or OH if unused. Bridges are numbered along the chain shown (N, C = ends). Where no end group is shown, it is not given here. C6F4(1,4-diyl) = Fc1c(F)c([*:2])c(F)c(F)c1[*:1]

B1: macrocyclic peptide MP7 (peptide)
peptide: CTLKCKLI-NH2
modifications: linker 1-5 via C6F4(1,4-diyl); N-terminus assumed
SMILES: CC[C@H](C)[C@H](NC(=O)[C@H](CC(C)C)NC(=O)[C@H](CCCCN)NC(=O)[C@@H]1CSc2c(F)c(F)c(c(F)c2F)SC[C@H](N)C(=O)N[C@@H]([C@@H](C)O)C(=O)N[C@@H](CC(C)C)C(=O)N[C@@H](CCCCN)C(=O)N1)C(N)=O

Legend:
[1] = target: T1, human LDH5, tetramer of human LDHA subunits (human, UniProt P00338 1-332); experiment: MST on tetrameric LDH5, Kd from red-dye raw fluorescence
[2] = target: T2, LDH1, tetramer of full length human LDHB subunits (human, UniProt P07195 2-334); experiment: MST on tetrameric LDH1, 10 to 20 s on time
T2 construct: Homotetramer; also called LDHBfl; full length LDHB

[3] = target: T1, human LDH5, tetramer of human LDHA …; experiment: cell-based or functional assay
[4] = target: T2, LDH1, tetramer of full length human …; experiment: cell-based or functional assay
[5] = target: T2, LDH1, tetramer of full length human …; experiment: biochemical and biophysical evaluation, not specified further

T2 sequence (P07195 2-334 limits assumed): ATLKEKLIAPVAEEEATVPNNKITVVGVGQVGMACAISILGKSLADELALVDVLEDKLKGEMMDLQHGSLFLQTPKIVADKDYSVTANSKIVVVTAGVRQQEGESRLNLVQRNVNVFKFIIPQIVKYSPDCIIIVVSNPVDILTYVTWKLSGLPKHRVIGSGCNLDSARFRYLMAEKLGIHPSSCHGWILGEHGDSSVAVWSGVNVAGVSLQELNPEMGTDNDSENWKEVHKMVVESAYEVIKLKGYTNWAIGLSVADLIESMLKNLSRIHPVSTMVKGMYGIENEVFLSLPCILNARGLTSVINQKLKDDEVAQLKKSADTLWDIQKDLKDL

Binder	Kd [1] [µM]	Kd [2] [µM]	ΔTm, thermal denaturation by nanoDSF, 400 µM MP7 [3] [° C.]	EC50 of disruption of the tetrameric state (normalised 350 nm intrinsic fluorescence) [4] [µM]	ΔTm, thermal denaturation by nanoDSF, 400 µM MP7 [4] [° C.]	binding result [5]
B1	~117	~380	-5	172	-1.5	–
ATLKEKLIAPVAEEEATVP-NH2 [LB19, LDHB 19 N-terminal amino acid peptide]	–	–	–	–	–	no binding
